Test results: patent publication US20060062793A1, “Modified antibodies to prostate-specific membrane antigen and uses thereof” (priority 2004, published 2006)

Legend:
[1] = tested on: vascular endothelium of solid tumors; experiment: Phase I trial of 111In-DOTA-deJ591 in refractory non-prostate solid tumors; type: in vivo, human
Excerpt: Eligible patients were those with refractory solid tumor malignancies whose tumor types are known to express PSMA on the neovasculature.
Patients the participated in the study included eight renal cell cancer patients, four bladder cancer patients, two colon cancer patients, and one pancreas cancer patient.

[2] = tested on: hormone-refractory prostate cancer metastases; experiment: Nuclear imaging with 111In or 177Lu labeled deJ591 versus standard imaging; type: in vivo, human
Description: The antibody scans were compared to standard imaging studies (bone, CT or MR scans) obtained on each patient to assess the underlying sensitivity, specificity, and accuracy of deJ591 targeting to metastatic sites. Bony and soft tissue metastases were evaluated independently.

[3] = tested on: recurrent, progressing prostate cancer; experiment: Phase I trial of four weekly doses of 111In-DOTA-deJ591; set-up: species or system human; settings: human, in vivo
Description: Patients with recurrent, progressing prostate cancer received four weekly doses of ^111In-DOTA-deJ591. Doses were escalated in cohorts of three patients and ranged from 62.5-500 mg/m2 (total). […] After the first dose, patients were imaged on the day of injection (day 0) and days 1, 2, 4 and 7.
Serum PK, immune reaction and toxicity were evaluated after each dose for a minimum of 12 weeks.

prostate cancer = settings: after each radiolabeled dose over five months
Description: Dose twelve was radiolabeled with a therapeutic quantity of ^90Yttrium (19 mCi) calculated to deliver less than a 150 rad dose to the blood.

[4] = tested on: PSMA-positive human LNCaP tumors; experiment: Biodistribution of 111In labeled MAbs in nude mice bearing LNCaP tumors; type: in vivo, mouse
Description: Prior to use, the cells were trypsinized, counted and suspended in Matrigel (Collaborative Biomedical Products, Bedford, Mass.). Nu/Nu Balb C mice 8-10 weeks of age were inoculated, in the right and left flanks, with a suspension of 5×10^6 LNCaP cells in Matrigel (BD Biosciences, Bedford Mass.). After a period of 14-18 days, tumors (100-300 mg) had developed. The PSMA-negative DU145 and PC3 cells were implanted in nude mice in an identical manner.
The PSMA-positive and PSMA-negative tumor bearing mice were injected, via the tail vein, with 80 KBq of the iodinated MAb (400 MBq/mg) in 200 μL of PBS (pH 7.4, 0.2% BSA). Groups of animals (3-8/group) were sacrificed after 2, 4 or 6 days. The major organs and tumors were recovered. The tissue samples were weighed and counted, with appropriate standards in an automatic NaI(Tl) counter. These measured relative activity data (cpm) were background corrected and expressed as a percentage of the injected dose per gram (% ID/g). […] J415, J591 and 7E11 were labeled with ^111In (100 MBq/mg). 80 KBq of the ^111In labeled MAbs were injected in groups of animals. The % ID/g in various organs and tumor tissues was determined at 2-6 days post injection in a similar way as described for ^131I labeled MAbs.

[5] = Pharmacokinetics of deJ591 and deJ591-DM1 in cynomolgus monkeys; type: in vivo; settings: Monkey, male & female
LNCaP tumor xenografts = experiment: Murine J591-DM1 immunoconjugate in BALB/c mice with LNCaP xenografts; type: in vivo, mouse; settings: unconjugated, equimolar, intraperitoneal qday x 5 days
Description: Tumor xenografts of LNCaP cells were established in the right flank of BALB/c mice (5×10^6 cells injected subcutaneously). Animals were observed until tumors were visible (7-10 mm). Animals were then treated with PBS, unconjugated mAb J591, unconjugated DM1, both mAb J591 and DM1 but unconjugated, and J591-DM1 immunoconjugate (100, 200, 300, and 400 mcg/day intraperitoneal qday×5 days). The mAb J591 was modified to introduce dithiopyridyl groups and then conjugated to DM1 via a hindered disulfide bond, as described above. Unconjugated mAb J591 and DM1 were given in equimolar concentrations.
Tumor xenografts of both LNCaP cells (5×10^6 cells injected subcutaneously in the right flank) and PC3 cells (3×10^6 cells injected subcutaneously in the left flank) were established in BALB/c mice. Animals were observed until LNCaP tumors were visible (PC3 tumors were present but much smaller). Animals treated with J591-DM1 immunoconjugate: 300 mcg/day intraperitoneal qday×5 days
Tumor xenografts of LNCaP cells were established subcutaneously in the right flank of BALB/c mice. […]
All animals were photographed pre- and post-treatment and tagged for identification. Tumor volume was determined (length×width×depth) and closely followed. […]

CD-1 mice = experiment: Single IV administration toxicity of deJ591-DM1 and DM1 in CD-1 mice; type: in vivo, mouse
[6] = tested on: androgen-independent PSMA-positive 22RV1 xenograft; experiment: deJ591-DM1 efficacy in castrate or intact scid mice bearing 22RV1 xenograft; type: in vivo, mouse
Description: Prostate tumors can be broadly classified as either androgen-dependent or androgen-independent. […] The 22RV1 cell line was originally developed as androgen-independent and can be grown as a xenograft in C.B-17 scid mice that have been left either intact or castrated. […] This was approximately twice the time required for the tumors of intact mice to reach 1000 mm^3 (9.3 days). C.B-17 scid mice bearing CWR22 xenografts approximately 200 mm^3 in size received IV injections (200 μL constant volume) of the test articles according to the dosage and schedule shown in the Table 24.

Row | Molecule | Liver uptake ([1]; 5 mg) | Plasma clearance (T1/2) ([1]; 5 mg) [h] | Liver uptake ([1]; 10 mg) | Plasma clearance (T1/2) ([1]; 10 mg) [h] | Liver uptake ([1]; 20 mg) | Plasma clearance (T1/2) ([1]; 20 mg) [h] | negative mAb scans in patients without documented soft tissue metastases ([2]; fifteen patients) [%] | specificity, bone ([2]; seven patients with negative bone scans) [%] | plasma half-life [3] | tumor localization to known tumor sites (prostate cancer) | tumor uptake over time [4] | Total deJ591 AUC ([5]; 6 mg/kg (72 mg/m^2), study KLA W-171) [µg·h/mL] | Total deJ591 AUC ([5]; 10 mg/kg (120 mg/m^2), study CTBR 57355) [µg·h/mL] | mortality (LNCaP tumor xenografts) | toxicity compared with deJ591-DM1 at equimolar dosages (CD-1 mice) | Relative TGD ([6]; Castrate mice, 240 μg/kg DM1-equivalents, q3dX5) | change in growth delay for castrate mice relative to androgen-intact mice ([6]; q3dx5) [fold]
1 | deJ591 | 28%±14% | 21 ± 11 | 17%±7% | 24 ± 6 | 13%±5% | 37 ± 8 | 100 | 100 | varied with dose | excellent | gradually increased with time and is quite similar to that of 7E11 | 25200 | 49400 | – | – | – | –
2 | COc1cc2cc(c1Cl)N(C)C(=O)C[C@H](OC(=O)[C@H](C)N(C)C(=O)CCS)[C@]1(C)O[C@H]1[C@H](C)[C@@H]1C[C@@](O)(NC(=O)O1)[C@H](OC)/C=C/C=C(\C)C2 [DM1, reference compound] | – | – | – | – | – | – | – | – | – | – | – | – | – | died within 48 hours of treatment completion | tended to be less toxic than deJ591-DM1 at lower dosages | 1.4 | 1.4
